Publication doi:10.1101/2025.03.29.646087

Biological target: SARS-CoV-2 nsp15 with H234A mutation and a N-terminal Strep-Tag II (SARS-CoV-2)
Experiment: cryo-EM structure

Work on “SARS-CoV-2 nsp15 with H234A mutation and a N-terminal Strep-Tag II (enzyme)” yielded a stoichiometry N of 6.
